Results: paper PMC11529724 (Nature chemical biology, 2024)

B1: Atto488-labeled TTLL6 (enzyme, Mus musculus, UniProt A4Q9E8 51-502, looked up)
chain: GKKKRKKKRLVINLSNCRYDSVRRAAQQYGLREAGDNDDWTLYWTDYSVSLERVMEMKSYQKINHFPGMSEICRKDLLARNMSRMLKLFPKDFHFFPRTWCLPADWGDLQTYSRTRKNKTYICKPDSGCQGRGIFITRSVKEIKPGEDMICQLYISKPFIIDGFKFDLRVYVLVTSCDPLRVFVYNEGLARFATTSYSHPNLDNLDEICMHLTNYSINKHSSNFVQDAFSGSKRKLSTFNSYMKTHGYDVEQIWRGIEDVIIKTLISAHPVIKHNYHTCFPSHTLNSACFEILGFDILLDRKLKPWLLEVNHSPSFSTDSKLDKEVKDSLLYDALVLINLGNCDKKKVLEEERQRGRFLQQCPNREIRLEEVKGFQAMRLQKTEEYEKKNCGGFRLIYPGLNLEKYDKFFQDNSSLFQNTVASRARELYARQLIQELRQKQEKKVFLKKARK
modifications: Atto488 on the N-terminus, through the synthetic peptide NH2-(Atto488)-LPETGGGG ligated with sortase

How the values were obtained:
[1] = target: subtilisin-treated unmodified human microtubules missing their β-tubulin tails (human (endogenous in tsA201), UniProt P68363 1-451; P07437 1-444); assay: TIRF microscopy binding assay
subtilisin-treated unmodified human microtubules missing their β-tubulin tails, sequence (P68363 whole entry, chain 1 of 2): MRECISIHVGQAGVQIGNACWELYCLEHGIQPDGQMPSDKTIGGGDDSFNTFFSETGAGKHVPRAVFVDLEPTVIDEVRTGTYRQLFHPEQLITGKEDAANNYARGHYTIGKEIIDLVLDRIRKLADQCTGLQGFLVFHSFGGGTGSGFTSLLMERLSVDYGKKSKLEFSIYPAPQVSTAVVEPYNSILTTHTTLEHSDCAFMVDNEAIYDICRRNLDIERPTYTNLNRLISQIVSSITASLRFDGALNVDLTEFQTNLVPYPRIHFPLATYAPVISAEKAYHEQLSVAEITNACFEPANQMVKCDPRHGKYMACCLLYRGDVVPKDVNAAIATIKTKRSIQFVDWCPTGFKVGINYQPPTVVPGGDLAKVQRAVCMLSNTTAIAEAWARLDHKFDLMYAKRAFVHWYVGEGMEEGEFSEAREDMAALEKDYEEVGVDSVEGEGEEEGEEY
subtilisin-treated unmodified human microtubules missing their β-tubulin tails, sequence (P07437 1-427, chain 2 of 2): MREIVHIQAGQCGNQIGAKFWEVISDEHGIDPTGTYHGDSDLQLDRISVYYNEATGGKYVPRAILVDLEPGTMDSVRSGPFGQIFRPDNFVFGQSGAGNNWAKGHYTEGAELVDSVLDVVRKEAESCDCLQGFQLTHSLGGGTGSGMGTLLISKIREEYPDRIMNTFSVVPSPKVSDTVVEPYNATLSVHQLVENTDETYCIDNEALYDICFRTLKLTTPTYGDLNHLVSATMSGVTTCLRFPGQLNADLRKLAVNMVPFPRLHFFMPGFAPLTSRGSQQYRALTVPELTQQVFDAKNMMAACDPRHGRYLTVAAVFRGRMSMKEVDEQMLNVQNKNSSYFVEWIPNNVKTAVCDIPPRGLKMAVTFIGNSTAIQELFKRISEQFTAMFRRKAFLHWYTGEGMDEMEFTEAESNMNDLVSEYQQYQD

[2] = target: microtubules assembled from porcine brain tubulin (porcine, UniProt P02550 1-451; P02554 1-445); assay: co-sedimentation
microtubules assembled from porcine brain tubulin, sequence (P02550 whole entry, chain 1 of 2): as the sequence (P68363 whole entry, chain 1 of 2) above, with L136S, S232G, I265A, S340T, Q358E counted along it
microtubules assembled from porcine brain tubulin, sequence (P02554 whole entry, chain 2 of 2): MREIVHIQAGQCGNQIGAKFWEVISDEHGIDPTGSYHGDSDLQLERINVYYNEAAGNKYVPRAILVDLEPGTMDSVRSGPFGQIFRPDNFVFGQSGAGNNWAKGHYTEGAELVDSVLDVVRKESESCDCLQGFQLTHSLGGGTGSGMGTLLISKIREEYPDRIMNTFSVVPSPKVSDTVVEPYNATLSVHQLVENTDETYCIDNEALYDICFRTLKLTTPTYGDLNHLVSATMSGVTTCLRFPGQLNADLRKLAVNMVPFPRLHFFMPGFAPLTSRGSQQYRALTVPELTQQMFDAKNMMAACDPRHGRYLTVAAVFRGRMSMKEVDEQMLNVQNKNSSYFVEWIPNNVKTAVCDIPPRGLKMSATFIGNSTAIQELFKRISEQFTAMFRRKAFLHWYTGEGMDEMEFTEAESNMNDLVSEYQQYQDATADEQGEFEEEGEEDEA

Binder | fold decrease in recruitment against MTs with intact β-tails [1] | Kd [2]
B1 | ~18 fold | –
FQDNSSLFQNTVASRARELYARQLIQELRQKQEKKVFLKKARK (domain or fragment, Mus musculus, UniProt A4Q9E8 460-502, looked up) [TTLL6 MTBH1-2 (460–502)] | – | 3.7 µM
